The values that follow come from patent US20110135573A1 (DYAX, published 2011).

Bounds are passed on as bounds.

Assay [1] has as its target T1, human MMP-2 (Biomol #SE-237) (human, UniProt P08253 110-452, limits assumed).
T1 construct: also called hMMP-2
Nature of the assay: Ki,app, enzyme inhibition assay (fluorogenic peptide substrate), IgG.

Assay [2] has as its target T2, Mouse MMP-9 (R&D, 909-MM), APMA-activated (mouse, UniProt P41245 108-730, limits assumed).
T2 construct: also called mMMP-9; mouse MMP-9 (R&D Systems #909-MM-010)
The description is as above.

For assay [3], the target named is T3, Human MMP-9 catalytic domain (BIOMOL, SE-244) (human, UniProt P14780 107-457, limits assumed).
T3 construct: domain: catalytic domain; also called Cat-huMMP-9; cat-huMMP-9
The assay is described as above.

Assay [4] has as its target T1, human MMP-2 (Biomol #SE-237). Nature of the assay: Ki,app, enzyme inhibition assay (fluorogenic peptide substrate), medium-scale sFab. As for the experimental part: (§1) Target enzymes were incubated with inhibitor for two hours at 30° C. in reaction buffer (50 mM Tris-HCl pH 7.5, 150 mM NaCl, 5 mM CaCl₂, 0.05% Brij-35) in a total volume of 90 μL using a white 96 well plate (Costar). […] An anti-MMP-2 antibody (R&D Systems polyclonal IgG #AF902) was similarly tested with 200 nM as the highest inhibitor concentration. Reactions were initiated by the addition of 10 μL of a 10× concentrated stock of substrate, Mca-Lys-Pro-Leu-Gly-Leu-Dap(Dnp)-Ala-Arg-NH2, (Bachem M-2350), at final concentration of 10 μM and monitored at 30° C. in a Molecular Devices' Gemini fluorescence plate reader. The excitation and emission wavelengths were set at 328 nm and 393 nm, respectively. Kinetic data were acquired by the increase in fluorescence, and initial rates for each condition were plotted against the total inhibitor concentration. Reactions were performed in duplicates and all data replicates were plotted in a single graph and fit to the following equation¹: […]

The target of assay [5] is T3, Human MMP-9 catalytic domain (BIOMOL, …). The description is as above. Here is the method:
as §1

For assay [6], the target named is T1, human MMP-2 (Biomol #SE-237). Put plainly: Ki,app, enzyme inhibition assay (fluorogenic peptide substrate), small-scale sFab. As for the experimental part:
as §1

Assay [7] concerns the target T3, Human MMP-9 catalytic domain (BIOMOL, …). Described as above. As for the experimental part: as §1
Assay [8] addresses T2, Mouse MMP-9 (R&D, 909-MM), …. Described as above. As for the experimental part: as §1

T1 sequence (P08253 110-452 limits assumed): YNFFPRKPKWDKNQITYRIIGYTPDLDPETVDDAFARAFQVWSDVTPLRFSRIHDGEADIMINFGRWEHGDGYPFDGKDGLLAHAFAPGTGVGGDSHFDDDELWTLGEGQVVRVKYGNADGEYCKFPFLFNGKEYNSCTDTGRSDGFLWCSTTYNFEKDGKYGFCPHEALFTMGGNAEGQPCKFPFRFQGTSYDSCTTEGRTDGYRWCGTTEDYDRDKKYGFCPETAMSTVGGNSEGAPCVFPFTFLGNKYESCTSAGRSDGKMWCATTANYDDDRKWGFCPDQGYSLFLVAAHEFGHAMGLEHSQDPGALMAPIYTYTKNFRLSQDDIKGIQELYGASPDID
T2 sequence (P41245 108-730 limits assumed): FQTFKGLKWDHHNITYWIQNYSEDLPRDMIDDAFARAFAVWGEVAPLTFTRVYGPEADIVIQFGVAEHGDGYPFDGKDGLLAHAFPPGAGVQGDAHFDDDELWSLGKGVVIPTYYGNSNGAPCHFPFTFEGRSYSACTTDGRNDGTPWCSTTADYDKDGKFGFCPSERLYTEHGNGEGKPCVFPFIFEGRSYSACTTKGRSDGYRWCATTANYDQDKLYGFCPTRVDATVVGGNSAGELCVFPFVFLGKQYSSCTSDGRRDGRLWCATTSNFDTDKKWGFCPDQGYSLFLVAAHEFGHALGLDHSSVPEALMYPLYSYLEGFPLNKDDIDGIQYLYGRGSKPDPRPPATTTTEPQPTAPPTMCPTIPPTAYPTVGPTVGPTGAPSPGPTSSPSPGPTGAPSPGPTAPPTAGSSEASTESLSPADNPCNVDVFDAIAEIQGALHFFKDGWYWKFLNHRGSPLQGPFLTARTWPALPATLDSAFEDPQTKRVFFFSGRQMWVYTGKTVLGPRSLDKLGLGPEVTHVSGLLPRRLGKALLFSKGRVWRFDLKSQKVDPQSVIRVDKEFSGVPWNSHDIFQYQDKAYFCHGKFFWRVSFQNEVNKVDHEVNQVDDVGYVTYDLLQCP
T3 sequence (P14780 107-457 limits assumed): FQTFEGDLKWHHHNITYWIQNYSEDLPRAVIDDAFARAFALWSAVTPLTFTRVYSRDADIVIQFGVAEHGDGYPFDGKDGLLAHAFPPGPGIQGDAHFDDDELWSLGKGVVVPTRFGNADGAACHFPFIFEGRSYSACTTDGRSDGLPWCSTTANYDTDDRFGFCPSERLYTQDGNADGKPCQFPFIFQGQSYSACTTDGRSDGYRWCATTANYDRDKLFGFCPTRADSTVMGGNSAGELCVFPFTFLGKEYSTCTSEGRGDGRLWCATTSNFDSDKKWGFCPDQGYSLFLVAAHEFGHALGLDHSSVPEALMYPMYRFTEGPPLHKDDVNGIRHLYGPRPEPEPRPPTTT

B1: X0106-B02 (antibody, V domains shown)
VH: EVQLLESGGGLVQPGGSLRLSCAASGFTFSWYDMWWVRQAPGKGLEWVSVIYSSGGPTFYADSVKGRFTISRDNSKNTLYLQMNSLRAEDTAVYYCAKDRAYGDYVGWNGFDYWGQGTLVTVSS
VL: EIVLTQSPATLSLSPGERATLSCRASQSISSFLAWYQQKPGQAPRLLIYDASYRATGIPARFSGSGSGTDFTLTISSLEPEDFAVYYCQQRGNWPITFGQGTRLEIK
notes: Produced and tested as IgG1; germlined, optimized version of M0276-F11
As for B1, the Ki in assay [1] is 0.31 nM; in assay [2], 0.24 nM; in assay [3] it was 0.08 nM.

B2: M0301-A09 (Fab, V domains shown)
VH: EVQLLESGGGLVQPGGSLRLSCAASGFTFSYYDMWWVRQAPGKGLEWVSVIYPSGGYTAYADSVKGRFTISRDNSKNTLYLQMNSLRAEDTAVYYCAKDRAYGDYVGWNGFDYWGQGTLVTVSS
VL: DIQMTQSPATLSLSPGERATLSCRASQSISSFLAWYQQKPGQAPRLLIYDASYRATGIPARFSGSGSGTDFTLTISSLEPEDYAVYYCQQRGNWPITFGQGTRLEIK
notes: sFab; variable domains only; also called M301-A09
In the case of B2, the Ki was 1 nM in assay [4], 0.5 nM in assay [5], 0.5 nM in assay [6] and 0.3 nM in assay [7].

B3: M0273-C10 (Fab, V domains shown)
VH: EVQLLESGGGLVQPGGSLRLSCAASGFTFSFYPMWWVRQAPGKGLEWVSYIYPSGGATFYADSVKGRFTISRDNSKNTLYLQMNSLRAEDTAVYYCAKDRAYGDYVGWNGFDYWGQGTLVTVSS
VL: DIQMTQSPATLSLSPGERATLSCRASQSISSFLAWYQQKPGQAPRLLIYDASYRATGIPARFSGSGSGTDFTLTISSLEPEDYAVYYCQQRGNWPITFGQGTRLEIK
notes: sFab; variable domains only; also called M273-C10
Consider B3, for which the values for the Ki in assay [4], in assay [5] and in assay [7] were 2 nM, 1 nM and 0.9 nM, respectively.

B4: M0299-A12 (Fab, V domains shown)
VH: EVQLLESGGGLVQPGGSLRLSCAASGFTFSHYPMWWVRQAPGKGLEWVSYISSSGGGTFYADSVKGRFTISRDNSKNTLYLQMNSLRAEDTAVYYCAKDRAYGDYVGWNGFDYWGQGTLVTVSS
VL: DIQMTQSPATLSLSPGERATLSCRASQSISSFLAWYQQKPGQAPRLLIYDASYRATGIPARFSGSGSGTDFTLTISSLEPEDYAVYYCQQRGNWPITFGQGTRLEIK
notes: sFab; variable domains only; also called M299-A12
Take B4: the Ki in assay [4] is 1.7 nM; in assay [5] it was 0.6 nM; in assay [6], 1.7 nM; in assay [7], 0.2 nM.

B5: M0272-H08 (Fab, V domains shown)
VH: EVQLLESGGGLVQPGGSLRLSCAASGFTFSAYDMWWVRQAPGKGLEWVSVIYPSGGTTFYADSVKGRFTISRDNSKNTLYLQMNSLRAEDTAVYYCAKDRAYGDYVGWNGFDYWGQGTLVTVSS
VL: DIQMTQSPATLSLSPGERATLSCRASQSISSFLAWYQQKPGQAPRLLIYDASYRATGIPARFSGSGSGTDFTLTISSLEPEDYAVYYCQQRGNWPITFGQGTRLEIK
notes: sFab; variable domains only; also called M272-H08
Take B5: the Ki in assay [7] came out at 0.4 nM.

B6: M0301-D12 (Fab, V domains shown)
VH: EVQLLESGGGLVQPGGSLRLSCAASGFTFSMYDMWWVRQAPGKGLEWVSVIYSSGGYTSYADSVKGRFTISRDNSKNTLYLQMNSLRAEDTAVYYCAKDRAYGDYVGWNGFDYWGQGTLVTVSS
VL: DIQMTQSPATLSLSPGERATLSCRASQSISSFLAWYQQKPGQAPRLLIYDASYRATGIPARFSGSGSGTDFTLTISSLEPEDYAVYYCQQRGNWPITFGQGTRLEIK
notes: sFab; variable domains only; also called M301-D12
In the case of B6, the Ki was more than 10 nM in assay [4], 1.7 nM in assay [5], 1.2 nM in assay [6] and 1 nM in assay [7].

B7: M0306-D04 (Fab, V domains shown)
VH: EVQLLESGGGLVQPGGSLRLSCAASGFTFSLYPMWWVRQAPGKGLEWVSSIYPSGGATFYADSVKGRFTISRDNSKNTLYLQMNSLRAEDTAVYYCAKDRAYGDYVGWNGFDYWGQGTLVTVSS
VL: DIQMTQSPATLSLSPGERATLSCRASQSISSFLAWYQQKPGQAPRLLIYDASYRATGIPARFSGSGSGTDFTLTISSLEPEDYAVYYCQQRGNWPITFGQGTRLEIK
notes: sFab; variable domains only; also called M306-D04
With B7, the figures for the Ki in assay [6], in assay [8] and in assay [7] were 1 nM, 2.8 nM and 0.9 nM, respectively.

B8: M0275-E12 (Fab, V domains shown)
VH: EVQLLESGGGLVQPGGSLRLSCAASGFTFSHYDMWWVRQAPGKGLEWVSVIYSSGGFTGYADSVKGRFTISRDNSKNTLYLQMNSLRAEDTAVYYCAKDRAYGDYVGWNGFDYWGQGTLVTVSS
VL: DIQMTQSPATLSLSPGERATLSCRASQSISSFLAWYQQKPGQAPRLLIYDASYRATGIPARFSGSGSGTDFTLTISSLEPEDYAVYYCQQRGNWPITFGQGTRLEIK
notes: sFab; variable domains only; also called M275-E12
Consider B8, for which the Ki in assay [4] is 0.5 nM; in assay [5], 0.4 nM; in assay [6] it was 0.9 nM; in assay [8], 1 nM; in assay [7], 0.3 nM.

B9: M0299-C09 (Fab, V domains shown)
VH: EVQLLESGGGLVQPGGSLRLSCAASGFTFSNYPMWWVRQAPGKGLEWVSYIVPSGGATFYADSVKGRFTISRDNSKNTLYLQMNSLRAEDTAVYYCAKDRAYGDYVGWNGFDYWGQGTLVTVSS
VL: DIQMTQSPATLSLSPGERATLSCRASQSISSFLAWYQQKPGQAPRLLIYDASYRATGIPARFSGSGSGTDFTLTISSLEPEDYAVYYCQQRGNWPITFGQGTRLEIK
notes: sFab; variable domains only; also called M299-C09
Consider B9, for which the results for the Ki in assay [6] and in assay [7] were more than 5 nM and 0.7 nM, respectively.

B10: M0273-G07 (Fab, V domains shown)
VH: EVQLLESGGGLVQPGGSLRLSCAASGFTFSHYDMWWVRQAPGKGLEWVSVIYPSGGPTYYADSVKGRFTISRDNSKNTLYLQMNSLRAEDTAVYYCAKDRAYGDYVGWNGFDYWGQGTLVTVSS
VL: DIQMTQSPATLSLSPGERATLSCRASQSISSFLAWYQQKPGQAPRLLIYDASYRATGIPARFSGSGSGTDFTLTISSLEPEDYAVYYCQQRGNWPITFGQGTRLEIK
notes: sFab; variable domains only; also called M273-G07
B10: the values for the Ki in assay [4], in assay [5] and in assay [7] were 1 nM, 0.6 nM and 0.6 nM, respectively.

B11: M0273-B10 (Fab, V domains shown)
VH: EVQLLESGGGLVQPGGSLRLSCAASGFTFSKYAMIWVRQAPGKGLEWVSWIPPSGGYTSYADSVKGRFTISRDNSKNTLYLQMNSLRAEDTAVYYCAKDRAYGDYVGWNGFDYWGQGTLVTVSS
VL: DIQMTQSPATLSLSPGERATLSCRASQSISSFLAWYQQKPGQAPRLLIYDASYRATGIPARFSGSGSGTDFTLTISSLEPEDYAVYYCQQRGNWPITFGQGTRLEIK
notes: sFab; variable domains only; also called M273-B10
Consider B11, for which, in assay [7], the Ki amounted to 0.7 nM.

B12: M0273-A11 (Fab, V domains shown)
VH: EVQLLESGGGLVQPGGSLRLSCAASGFTFSRYDMWWVRQAPGKGLEWVSVISPSGGATFYADSVKGRFTISRDNSKNTLYLQMNSLRAEDTAVYYCAKDRAYGDYVGWNGFDYWGQGTLVTVSS
VL: DIQMTQSPATLSLSPGERATLSCRASQSISSFLAWYQQKPGQAPRLLIYDASYRATGIPARFSGSGSGTDFTLTISSLEPEDYAVYYCQQRGNWPITFGQGTRLEIK
notes: sFab; variable domains only; also called M273-A11
For B12, the results for the Ki in assay [4], in assay [5] and in assay [7] were 2.7 nM, 0.8 nM and 0.6 nM, respectively.

B13: X0106-C03 (antibody, V domains shown)
VH: EVQLLESGGGLVQPGGSLRLSCAASGFTFSVYDMWWVRQAPGKGLEWVSVIYPSGGATYYADSVKGRFTISRDNSKNTLYLQMNSLRAEDTAVYYCAKDRAYGDYVGWNGFDYWGQGTLVTVSS
VL: EIVLTQSPATLSLSPGERATLSCRASQSISSFLAWYQQKPGQAPRLLIYDASYRATGIPARFSGSGSGTDFTLTISSLEPEDFAVYYCQQRGNWPITFGQGTRLEIK
notes: Produced and tested as IgG1; germlined, optimized version of M0274-G08; printed as X0106-C04 in some sentences; also called X0106-C04
Turning to B13, the Ki in assay [1] is 0.42 nM; in assay [2] it was 0.22 nM; in assay [3], 0.14 nM.
